Data from CN109678958A (CHONGQING BIOMEAN TECH CO LTD, dated 2019).

Molecular target: T1, 重组人NT-proBNP (recombinant human N-terminal pro-brain natriuretic peptide, bought from 重庆探生科技有限公司) (human, UniProt P16860 27-102)
T1 construct: also called NT-proBNP校准品; 人脑钠肽原N端肽
T1 sequence (looked up): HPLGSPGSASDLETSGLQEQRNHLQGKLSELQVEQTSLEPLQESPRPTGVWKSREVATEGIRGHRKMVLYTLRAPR
Assay: phage ELISA, NT-proBNP coated, HRP anti-phage antibody, A450

B1: 人NT-proBNP特异性羊单链抗体scFv, displayed on phage (clone of the third round of panning) (scFv)
scFv: MALSQVRLQESGPSLVKPSQTLSLTCTVSGPSLTDYDVDWVRQAPGKALEWLGFINQGAPTGYDPALKSRLSITRDTSKSQVSLSLSSMTAEDTAVYYCARGAILGWGRGLLVTVSSQGSTSGSGKPGSGEGSTKGGQAVLTQPASVSGSPGQTVTISCTGTSGDIAGYNLVGWYQQLPNSAPKTLIYDVSTRRSGIPARFSGSKSGNTATLTISGLQAEDEADYYCSTSISANSVGFGSGTRLTVLGQPKSAPS
notes: The phage coat fusion partner is not described; also called 单克隆噬菌体
**Q.** Does B1 bind?
**A.** Result: binds
